The values below come from paper PMC11879458.

Holding throughout (experiment): EMSA
For orientation: Mobility shift assays separate free from complexed probe on a gel.

Series [1] has as its target ADR-2 (ΔdsRBD);ADBP-1 (Δ1-66 aa) (Caenorhabditis elegans;Caenorhabditis …, UniProt Q22618;G5EDW1 1-35+106-495;67-217, internal_change|del1-66).
A further series concerns the target ADR-2;ADBP-1 (Caenorhabditis elegans;Caenorhabditis …, UniProt Q22618;G5EDW1 1-495;1-217, |).
In another series the target is ADR-2 (Caenorhabditis elegans, UniProt Q22618 1-495).

B1: FAM-dsRNA 21 bp (dsRNA)
RNA 1: AAGGAUUACUGUAGUUUUCGC
RNA 2: GCGAAAACUACAGUAAUCCUU
As for B1, the results for the binding result (in series [1]; with ADR-2;ADBP-1; in the series with ADR-2) were “no binding”, “binds” and “binds”, respectively.
